B2: CD45RO ECD (domain or fragment)
chain: QSPTPSPTDAYLNASETTTLSPSGSAVISTTTIATTPSKPTCDEKYANITVDYLYNKETKLFTAKLNVNENVECGNNTCTNNEVHNLTECKNASVSISHNSCTAPDKTLILDVPPGVEKFQLHDCTQVEKADTTICLKWKNIETFTCDTQNITYRFQCGNMIFDNKEIKLENLEPEHEYKCDSEILYNNHKFTNASKIIKTDFGSPGEPQIIFCRSEAAHQGVITWNPPQRSFHNFTLCYIKETEKDCLNLDKNLIKYDLQNLKPYTKYVLSLHAYIIAKVQRNGSAAMCHFTTKSAPPSQVWNMTVSMTSDNSMHVKCRPPRDRNGPHERYHLEVEAGNTLVRNESHKNCDFRVKDLQYSTDYTFKAYFHNGDYPGEPFILHHSTSYNSK

Tests used:
Test in all cases: SPR
SLAMF7 ECD = molecular target: T1, SLAMF7 ECD (human, UniProt Q9NQ25 23-226)
T1 chain: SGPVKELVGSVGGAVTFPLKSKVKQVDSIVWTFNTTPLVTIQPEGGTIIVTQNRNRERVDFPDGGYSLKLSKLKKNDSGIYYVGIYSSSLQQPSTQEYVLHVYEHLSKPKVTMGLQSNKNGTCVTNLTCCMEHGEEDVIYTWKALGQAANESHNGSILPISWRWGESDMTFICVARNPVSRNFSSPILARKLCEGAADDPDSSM

SLAMF1 ECD = molecular target: T2, SLAMF1 ECD (human, UniProt Q13291 21-237)
T2 chain: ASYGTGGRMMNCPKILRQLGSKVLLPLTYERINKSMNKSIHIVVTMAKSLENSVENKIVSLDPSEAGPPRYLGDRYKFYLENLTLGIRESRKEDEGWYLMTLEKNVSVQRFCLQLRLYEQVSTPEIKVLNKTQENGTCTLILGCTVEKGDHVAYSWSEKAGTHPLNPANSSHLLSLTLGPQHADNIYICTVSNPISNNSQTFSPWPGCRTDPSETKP

SLAMF8 ECD = SLAMF8 ECD (human, UniProt Q9P0V8 23-233)
SLAMF3 ECD = molecular target: T3, SLAMF3 ECD (human, UniProt Q9HBG7 48-454)
T3 chain: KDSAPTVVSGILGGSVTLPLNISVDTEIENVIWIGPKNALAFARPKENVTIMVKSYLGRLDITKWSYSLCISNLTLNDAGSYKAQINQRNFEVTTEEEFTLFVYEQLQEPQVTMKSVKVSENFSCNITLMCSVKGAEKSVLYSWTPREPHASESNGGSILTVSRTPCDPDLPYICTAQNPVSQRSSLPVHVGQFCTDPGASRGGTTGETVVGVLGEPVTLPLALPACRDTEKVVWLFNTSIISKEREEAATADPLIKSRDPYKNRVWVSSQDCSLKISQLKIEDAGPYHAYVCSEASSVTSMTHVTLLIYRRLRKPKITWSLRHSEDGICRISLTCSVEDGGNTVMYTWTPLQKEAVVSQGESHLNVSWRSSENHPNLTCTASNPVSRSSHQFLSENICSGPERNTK

SLAMF4 ECD = molecular target: T4, SLAMF4 ECD (human, UniProt Q9BZW8 22-229)
T4 chain: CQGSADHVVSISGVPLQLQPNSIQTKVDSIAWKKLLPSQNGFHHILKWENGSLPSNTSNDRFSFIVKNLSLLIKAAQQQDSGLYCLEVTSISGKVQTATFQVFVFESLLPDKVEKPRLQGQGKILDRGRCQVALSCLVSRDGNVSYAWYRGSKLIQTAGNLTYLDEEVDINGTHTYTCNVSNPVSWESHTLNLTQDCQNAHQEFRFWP

HAdV-D53 E3/49K = HAdV-D53 E3/49K (human adenovirus D53)
HAdV-D23 E3/49K = HAdV-D23 E3/49K (human adenovirus D23)
CD45RO ECD = molecular target: B2
SLAMF5 ECD = molecular target: T5, SLAMF5 ECD (human, UniProt Q9UIB8 22-225)
T5 chain: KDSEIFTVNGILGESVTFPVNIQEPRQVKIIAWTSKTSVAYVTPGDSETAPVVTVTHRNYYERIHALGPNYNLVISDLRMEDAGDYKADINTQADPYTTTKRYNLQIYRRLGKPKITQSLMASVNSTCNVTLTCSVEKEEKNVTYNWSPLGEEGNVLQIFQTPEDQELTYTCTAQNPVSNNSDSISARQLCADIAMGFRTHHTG

SLAMF6 ECD = molecular target: T6, SLAMF6 ECD (human, UniProt Q96DU3 22-226)
T6 chain: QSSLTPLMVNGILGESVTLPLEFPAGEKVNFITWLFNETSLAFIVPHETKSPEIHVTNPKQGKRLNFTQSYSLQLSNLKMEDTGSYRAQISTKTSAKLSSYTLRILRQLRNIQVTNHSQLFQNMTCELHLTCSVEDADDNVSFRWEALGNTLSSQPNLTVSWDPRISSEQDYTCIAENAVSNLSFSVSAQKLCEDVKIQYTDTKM

Sequence of SLAMF8 ECD (Q9P0V8 23-233): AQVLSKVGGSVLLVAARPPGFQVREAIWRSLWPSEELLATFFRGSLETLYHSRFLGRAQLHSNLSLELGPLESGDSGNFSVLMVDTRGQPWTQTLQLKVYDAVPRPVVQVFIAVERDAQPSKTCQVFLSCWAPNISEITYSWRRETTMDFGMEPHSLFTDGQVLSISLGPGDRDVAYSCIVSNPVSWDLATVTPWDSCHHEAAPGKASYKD

B1: HAdV-B1 CR1γ (Fc fusion)
chain: RSHLTVPVGSTCTLQGPQEGYVTWWRIYDNGGFARPCDQPGTKFSCNGRDLTIINITSNEQGFYYGTNYKNSLDYNIIVVPATTSAPRKSTFSSSSAKASTIPKTASAMLKLPKIALSNSTAAPNTIPKST
**Q.** Which results are given for B1?
**A.** Kd (SLAMF7 ECD): 1.5 nM; Kd (SLAMF1 ECD): 215 nM; Kd (SLAMF8 ECD): 60 nM; Kd (SLAMF3 ECD): 86 nM; Kd (SLAMF4 ECD): 280 nM

**Q.** With B2 as the binder, how does the Kd (HAdV-D53 E3/49K) read?
**A.** 0.21 nM

**Q.** What about the Kd (HAdV-D23 E3/49K) of the same binder?
**A.** 0.18 nM

B3: HAdV-D30 E3/49K (Fc fusion)
chain: ADPILVSVDWGKNLKLEGPKETPVEWWGGKNIQQLCVGNQTKHKELRHTCNMQNITLLSVNTSFNGDYFGFKNDNSGMKHYKVTVIPPKPTTRKPLPPPHYVNATMGQNLTLVGPANIPVTWLSEFGTLCEGKKILHEELNHTCNEQNLTLLFVNMTHNGPYFGFGKDNVDREQYEVSIISLFKVGAGQKKIDKGQRAEEKTKFNSGDLGRKQSRPKKKDIVDEVQVKSGNNQTLIGPPGKNVDWIKLSSGNDAVVTLCKGDTWIKHTCNGPNVTLINVTKPYEGSYYGSSDDGSSHYKVTVYDLYKSNKSKSKVKPYTTKGTTVNATNANGLKNALQQDGESENDQESKIPSAT
**Q.** Which Kd (CD45RO ECD) does the source give for B3 here?
**A.** 0.19 nM

**Q.** And the Kd (SLAMF3 ECD)?
**A.** 18 nM

B4: HAdV-A18 CR1α (Fc fusion)
chain: LSPEEEPNCRPPLTNIKVVLSTTHVTLQCKFFSTQLTWTFNGKNVAEANLKYHINKENITLHSPIHLGYYRCFATPCVQAFFLAPVINPRPATTAQPEKITKLISTAIATTATKGTEEIIYFSNFTTNLLLNCSCSNSLISWFANNTFCKAFFQGTTLYSAKLELCNTSTPSNLTLLPPFVAGRYFCIGAGGHPCQRHWKLVFRPTLVLPTSADPTLSPTPNF
**Q.** B4 was tested. Which Kd (SLAMF5 ECD) did it give?
**A.** 2.1 nM

**Q.** And the Kd (SLAMF7 ECD)?
**A.** 137 nM

**Q.** What about the Kd (SLAMF6 ECD) of the same binder?
**A.** 631 nM

Source: paper PMC4858740 (2016)
